Experiment [1] concerns the target T1, mouse CD200R1 protein (R&D systems, 2554-CD) (mouse, UniProt Q9ES57 26-238, limits assumed).
T1 construct: Bought; construct not described
T1 sequence (looked up): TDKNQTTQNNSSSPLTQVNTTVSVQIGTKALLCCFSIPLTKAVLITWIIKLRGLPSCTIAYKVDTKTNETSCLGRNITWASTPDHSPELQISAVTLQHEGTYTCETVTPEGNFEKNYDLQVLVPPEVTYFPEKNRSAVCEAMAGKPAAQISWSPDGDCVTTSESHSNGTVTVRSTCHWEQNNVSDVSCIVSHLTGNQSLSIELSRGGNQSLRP
Kind of experiment: ELISA, plate-bound mouse CD200R1 (2 ug/mL), IgG 0.0192-300 nM, OD 450 nm; panel 'mouse CD200R1'. As to the method: 96-well plates were coated with human CD200R1 (R&D systems, 3414-CD) and mouse CD200R1 protein (R&D systems, 2554-CD) at a concentration of 2 μg/mL at 4° C. for 16 hours and then were blocked with 3% skim milk.
Color was developed with a TMB substrate solution (Thermo Scientific, 34029, 1-Step™ TMB-ELISA Ultra Substrate Solution). The color reaction was stopped with stop solution (Invitrogen, SS04, ELISA Stop Solution). The absorbance was measured at an optical density of 450 nm.

Experiment [2] deals with T2, Hybrid CD200R1 MH (mouse;human, UniProt Q9ES57;Q8TD46).
T2 construct: single domain; mouse D1 over human D2; also called MH hybrid domain; P001 MH domain
T2 sequence (hybrid extracellular part, looked up): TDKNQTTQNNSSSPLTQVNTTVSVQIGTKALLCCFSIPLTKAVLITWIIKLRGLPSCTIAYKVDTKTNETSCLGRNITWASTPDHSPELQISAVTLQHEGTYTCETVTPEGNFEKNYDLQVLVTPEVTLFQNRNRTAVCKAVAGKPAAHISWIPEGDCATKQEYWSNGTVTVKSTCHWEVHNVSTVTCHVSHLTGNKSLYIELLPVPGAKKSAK
The experiment in a line: ELISA, plate-bound MH hybrid (1 ug/mL), antibody 0.0192-300 nM, O.D 450 nm; panel 'P001 MH domain-1)'. As to the method: Recombinant proteins were produced from the extracellular Ig-like V-type domain and Ig-like C2-type domain of human CD200R1, each designed as human-mouse (HM hybrid domain) and mouse-human (MH hybrid domain) recombinant proteins. A 96-well plate was coated at a concentration of 1 μg/mL with each protein at 4° C. for 16 hours and blocked with 3% skim milk. […] After color development with TMB substrate solution (Thermo Scientific, 34029, 1-Step™ Ultra TMB-ELISA Substrate Solution), the color reaction was stopped with a stop solution (Invitrogen, SS04, ELISA Stop Solution), and the absorbance was measured at an O.D. of 450 nm.

The target in experiment [3] is T3, human CD200RLa (Sino Biological, 11620-H08H) recombinant protein (human, UniProt Q6Q8B3 24-239).
T3 construct: Bought; construct not described
T3 sequence (looked up): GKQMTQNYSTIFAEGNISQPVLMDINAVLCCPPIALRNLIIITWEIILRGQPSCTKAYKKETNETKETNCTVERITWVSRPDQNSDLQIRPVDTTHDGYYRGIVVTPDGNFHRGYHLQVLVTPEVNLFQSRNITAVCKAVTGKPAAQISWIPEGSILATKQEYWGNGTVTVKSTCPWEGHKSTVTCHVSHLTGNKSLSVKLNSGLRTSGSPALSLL
Kind of experiment: ELISA, plate-bound human CD200RLa (2 ug/mL), antibody 0.0192-300 nM, O.D 450 nm; panel 'recombinant human CD200RLa'. As to the method: (§1) 96-well plates were coated with human CD200RLa (Sino Biological, 11620-H08H) and monkey CD200RLa (Sino Biological, 11576-C02H) recombinant proteins at a concentration of 2 μg/mL at 4° C. for 16 hours, and blocked with 3% skim milk for 1 hour. […] Color was developed with a TMB substrate solution (Thermo Scientific, 34029, 1-Step™ Ultra TMB-ELISA Substrate Solution). The color reaction was stopped with stop solution (Invitrogen, SS04, ELISA Stop Solution).

Experiment [4] concerns the target T4, monkey CD200RLa (Sino Biological, 11576-C02H) recombinant protein (monkey (cyno), UniProt A0A2K5W6R0 30-246).
T4 construct: Bought; construct not described; also called cyno CD200RLa
T4 sequence: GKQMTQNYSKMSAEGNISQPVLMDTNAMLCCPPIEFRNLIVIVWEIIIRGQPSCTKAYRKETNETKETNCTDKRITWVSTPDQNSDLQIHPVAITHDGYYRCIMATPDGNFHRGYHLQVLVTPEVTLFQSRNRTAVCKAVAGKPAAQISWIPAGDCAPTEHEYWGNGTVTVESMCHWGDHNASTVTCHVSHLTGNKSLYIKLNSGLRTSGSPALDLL
The experiment in a line: ELISA, plate-bound monkey CD200RLa (2 ug/mL), antibody 0.0192-300 nM, O.D 450 nm; panel 'recombinant cynomolgus CD200RLa/Fc'. As to the method:
as §1

Experiment [5] concerns the target T5, human CD200R1 expressed on cells (Jurkat-CD200R1, U937-CD200R1, HH cells) (human, UniProt Q8TD46 25-348).
T5 construct: whole, on cells; also called HH (CRL-2105); cell surface-expressed CD200R1
T5 sequence (looked up): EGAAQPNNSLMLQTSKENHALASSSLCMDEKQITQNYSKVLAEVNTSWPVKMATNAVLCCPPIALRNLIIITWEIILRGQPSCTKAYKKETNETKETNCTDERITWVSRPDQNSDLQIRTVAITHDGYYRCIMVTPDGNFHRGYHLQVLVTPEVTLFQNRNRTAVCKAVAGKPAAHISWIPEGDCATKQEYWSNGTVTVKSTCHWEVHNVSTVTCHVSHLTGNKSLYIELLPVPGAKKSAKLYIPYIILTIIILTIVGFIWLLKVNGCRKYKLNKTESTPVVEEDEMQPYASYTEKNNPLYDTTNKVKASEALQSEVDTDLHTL
Kind of experiment: flow cytometry, Jurkat-CD200R cells. As to the method: Two additional wells were treated with 10 μl of mouse IgG1K (BD, #555751) and 5 μl of commercial CD200R1 antibody (Biolegend, #329308) to determine CD200R1 expression on the cell line surface for cell quality control.
The antibodies were serially diluted 10-fold from a maximum concentration of 100 nM to 10 nM, 1 nM, […], and were added to the pre-seeded cells. After reaction for 1 hour at 4° C., the cells were treated with Alexa-647 goat anti-human IgG (H+L) cross-adsorbed secondary antibody (Invitrogen, #A21445) and incubated for an additional 30 minutes at 4° C. After washing twice with FACS buffer, flow cytometry was performed using a Novocyte Flow cytometer (Agilent). Using GraphPad Prism software, the EC₅₀ was determined using a nonlinear graph model of log (agonist) vs. response-variable slope, as shown in Table 32.

For experiment [6], the target named is T6, human CD200R1 with dual His-tags (human, UniProt Q8TD46 25-265).
T6 construct: Captured on the SPR chip by an anti-histidine antibody; also called hCD200R1-his; not shown: dual His-tags
T6 sequence (looked up): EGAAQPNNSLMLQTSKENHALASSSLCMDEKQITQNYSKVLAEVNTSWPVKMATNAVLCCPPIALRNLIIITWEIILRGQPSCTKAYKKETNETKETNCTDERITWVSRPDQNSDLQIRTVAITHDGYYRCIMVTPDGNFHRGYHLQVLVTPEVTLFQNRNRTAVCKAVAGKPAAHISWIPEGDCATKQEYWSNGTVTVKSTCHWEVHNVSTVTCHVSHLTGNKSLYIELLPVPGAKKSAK
Kind of experiment: SPR (Biacore CM5), His-tagged antigen captured by anti-histidine antibody, antibody as analyte, 1:1 Langmuir fit. The procedure: (§2) For the experiment, 30 μg/mL of an anti-histidine antibody was conjugated to a CM5 biacore chip via an amine bond while allowing to flow at 10 μl/min (10,000 RU). Then, 0.25 μg/mL of human or cynomolgus CD200R1 with dual His-tags was captured onto the completed chip for 60 seconds, and the binding ability of each antibody was analyzed. All experiments were performed by association of antibodies for 120 seconds and dissociation of antibodies for 600 seconds. The resulting graphs were fitted using a 1:1 Langmuir binding kinetic model (FIG. 16), and the kinetics of each antibody were calculated.

Experiment [7] concerns the target T7, cynomolgus CD200R1 with dual His-tags (cynomolgus, UniProt G7NZT0 25-266).
T7 construct: Captured on the SPR chip by an anti-histidine antibody; also called CCD200R1-his; cCD200R1-his; not shown: dual His-tags
T7 sequence: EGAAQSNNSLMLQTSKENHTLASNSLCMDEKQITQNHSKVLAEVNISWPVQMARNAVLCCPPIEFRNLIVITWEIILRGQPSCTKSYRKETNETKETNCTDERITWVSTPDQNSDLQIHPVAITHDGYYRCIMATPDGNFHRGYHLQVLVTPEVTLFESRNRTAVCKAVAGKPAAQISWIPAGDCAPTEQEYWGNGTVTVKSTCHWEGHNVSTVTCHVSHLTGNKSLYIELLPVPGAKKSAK
The experiment is described as above. The procedure:
as §2

Changes are numbered by the printed parent chain. Names and notes keep the numbering of the source.

B1: P001003 (IgG) (antibody, V domains shown)
VH: EVQLLESGGGLVQPGGSLRLSCAASGFTFSDYAMSWVRQAPGKGLEWVSAISHGGSSKYYADSVKGRFTISRDNSKNTLYLQMNSLRAEDTAVYYCARGPEVMLEFDYWGQGTLVTVSS
VL: QSVLTQPPSASGTPGQRVTISCTGSSSNIGNNAVTWYQQLPGTAPKLLIYSDNHRPSGVPDRFSGSKSGTSASLAISGLRSEDEADYYCAAWDSSLSGYVFGGGTKLTVL
On to B1, for which the binding result in experiment [1], in experiment [2] and in experiment [3] was “no binding (tested: 300 nM)” each time.

B2: P001007 (IgG) (antibody, V domains shown)
VH: EVQLLESGGGLVQPGGSLRLSCAASGFTFSNYDMSWVRQAPGKGLEWVSAISYDNGNTYYADSVKGRFTISRDNSKNTLYLQMNSLRAEDTAVYYCARNRAWFDYWGQGTLVTVSS
VL: B1 VL with T23S, A33N, T35Y, S51Y, N53S, H54Q, S94A, S97N
With B2, the binding result in experiment [3] and in experiment [4] was “no binding (tested: 300 nM)” each time.

B3: P001011 (IgG) (antibody, V domains shown)
VH: EVQLLESGGGLVQPGGSLRLSCAASGFTFSDYYMSWVRQAPGKGLEWVSWISSGGGSTYYADSVKGRFTISRDNSKNTLYLQMNSLGAEDTAVYYCARVRGTCNGTLCYYSNAMDVWGQGTLVTVSS
VL: B1 VL with N31S, A33D, T35S, S51D, A90G, A91T, S94A, S97N, G98A
As for B3, the binding result in experiment [1], in experiment [3] and in experiment [4] was “no binding (tested: 300 nM)” throughout.

B4: P001005 (IgG) (antibody, V domains shown)
VH: EVQLLESGGGLVQPGGSLRLSCAASGFTFSGYDMSWVRQAPGKGLEWVSQIYPGNGSKYYADSVKGRFTISRDNSKNALYLQMNSLRAEDTAVYYCAKDLQTWTSRRFDYWGQGTLVTVSS
VL: B1 VL with T23S, A33D, T35N, D52N, N53S, E84G, A90G, A91T, S94D, S97N
With B4, the binding result in experiment [1], in experiment [2] and in experiment [3] was “no binding (tested: 300 nM)” throughout.

B5: P001009v3 (antibody, V domains shown)
VH: EVQLLESGGGLVQPGGSLRLSCAASGFTFSSYDMSWVRQAPGKGLEWVSWISHGGGSIYYADSVKGRFTISRDNSKNTLYLQMNSLRAEDTAVYYCARDAPAYSAPLFDYWGQGTLVTVSS
VL: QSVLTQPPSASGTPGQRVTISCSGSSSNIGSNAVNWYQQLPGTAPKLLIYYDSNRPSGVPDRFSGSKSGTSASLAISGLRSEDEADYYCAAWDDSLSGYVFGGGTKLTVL
notes: P001009 with LC N30S (Kabat); also called P019001v3
In experiment [5], B5 yielded an EC50 of 0.33 nM. In experiment [6], this molecule registered a Kd of 0.109 nM, a koff of 0.000452 s⁻¹ and a kon of 4.16e+06 M⁻¹ s⁻¹. For the same molecule, in experiment [7], the Kd was determined as 1.15 nM, the off-rate constant (koff) was 7.09 s⁻¹ and the kon is 6.14e+09 M⁻¹ s⁻¹.

B6: P001009v4 (antibody, V domains shown)
VH: B5 VH
VL: B1 VL with T23S, N32K, T35N, S51Y, N53S, H54N, S94D
notes: P001009 with LC N31K (Kabat); also called P019001v4
In experiment [5], B6 showed a 50% effective concentration (EC50) of 2.37 nM. In experiment [6], this molecule had a Kd of 1.04 nM, a koff of 0.007 s⁻¹ and an on-rate (kon) of 6.74e+06 M⁻¹ s⁻¹. In experiment [7], this molecule displayed a Kd of 0.0822 nM, an off-rate (koff) of 0.000305 s⁻¹ and a kon of 3.71e+06 M⁻¹ s⁻¹.

The values above are taken from US20260263521A1 (AIMED BIO, published 2026).
